# Non-standard residues stand in square brackets, D forms with d. No end group written: not given here. *: point of attachment. X11 = ((1S)-1-carboxy-3-methylbutyl)carbamoyl, CC(C)C[C@H](NC(=O)*)C(=O)O; 4‑guanidinomethylbenzoyl = N=C(N)NCc1ccc(C(=O)*)cc1; Phe(3-F) = N[C@@H](Cc1cccc(F)c1)C(=O)O; Phe(3-Me) = Cc1cccc(C[C@H](N)C(=O)O)c1; Phe(2-F) = N[C@@H](Cc1ccccc1F)C(=O)O; Phe(2-Me) = Cc1ccccc1C[C@H](N)C(=O)O; NMeF = CN[C@@H](Cc1ccccc1)C(=O)O; Tic = O=C(O)[C@@H]1Cc2ccccc2CN1; Cha = N[C@@H](CC1CCCCC1)C(=O)O; dIva = CC[C@@](C)(N)C(=O)O; 4Amb = NCc1ccc(C(=O)O)cc1; Aib = CC(C)(N)C(=O)O
# B1: 4-Aminomethylbenzoyl-[Ala26, Ile28,31, NMePhe36]-PYY(25-36) (peptide)
# peptide: [4Amb]RAYINLITRQR[NMeF]-NH2
# modifications: N-terminus assumed
# SMILES: CC[C@H](C)[C@H](NC(=O)[C@H](Cc1ccc(O)cc1)NC(=O)[C@H](C)NC(=O)[C@H](CCCNC(=N)N)NC(=O)c1ccc(CN)cc1)C(=O)N[C@@H](CC(N)=O)C(=O)N[C@@H](CC(C)C)C(=O)N[C@H](C(=O)N[C@H](C(=O)N[C@@H](CCCNC(=N)N)C(=O)N[C@@H](CCC(N)=O)C(=O)N[C@@H](CCCNC(=N)N)C(=O)N(C)[C@@H](Cc1ccccc1)C(N)=O)[C@@H](C)O)[C@@H](C)CC
# notes: also called compound No. 16
# B2: Ac-[D-Pro24, D-Iva27, Cha28,36, Aib31]-PYY(23-36) (peptide)
# peptide: Ac-S[dP]RH[dIva][Cha]NL[Aib]TRQR[Cha]-NH2
# SMILES: CC[C@@](C)(NC(=O)[C@H](Cc1c[nH]cn1)NC(=O)[C@H](CCCNC(=N)N)NC(=O)[C@H]1CCCN1C(=O)[C@H](CO)NC(C)=O)C(=O)N[C@@H](CC1CCCCC1)C(=O)N[C@@H](CC(N)=O)C(=O)N[C@@H](CC(C)C)C(=O)NC(C)(C)C(=O)N[C@H](C(=O)N[C@@H](CCCNC(=N)N)C(=O)N[C@@H](CCC(N)=O)C(=O)N[C@@H](CCCNC(=N)N)C(=O)N[C@@H](CC1CCCCC1)C(N)=O)[C@@H](C)O
# notes: also called compound No. 180
# B3: [(1S)-1-carboxy-3-methylbutyl]carbamoyl-[D-Pro24, Cha27,28,36, Aib31]-PYY(23-36) (peptide)
# peptide: X11-S[dP]RH[Cha][Cha]NL[Aib]TRQR[Cha]-NH2
# SMILES: CC(C)C[C@H](NC(=O)N[C@@H](CO)C(=O)N1CCC[C@@H]1C(=O)N[C@@H](CCCNC(=N)N)C(=O)N[C@@H](Cc1c[nH]cn1)C(=O)N[C@@H](CC1CCCCC1)C(=O)N[C@@H](CC1CCCCC1)C(=O)N[C@@H](CC(N)=O)C(=O)N[C@@H](CC(C)C)C(=O)NC(C)(C)C(=O)N[C@H](C(=O)N[C@@H](CCCNC(=N)N)C(=O)N[C@@H](CCC(N)=O)C(=O)N[C@@H](CCCNC(=N)N)C(=O)N[C@@H](CC1CCCCC1)C(N)=O)[C@@H](C)O)C(=O)O
# notes: also called compound No. 184
# B4: 4-Aminomethylbenzoyl-[Ala26, Ile28,31, Tic36]-PYY(25-36) (peptide)
# peptide: [4Amb]RAYINLITRQR[Tic]-NH2
# modifications: N-terminus assumed
# SMILES: CC[C@H](C)[C@H](NC(=O)[C@H](Cc1ccc(O)cc1)NC(=O)[C@H](C)NC(=O)[C@H](CCCNC(=N)N)NC(=O)c1ccc(CN)cc1)C(=O)N[C@@H](CC(N)=O)C(=O)N[C@@H](CC(C)C)C(=O)N[C@H](C(=O)N[C@H](C(=O)N[C@@H](CCCNC(=N)N)C(=O)N[C@@H](CCC(N)=O)C(=O)N[C@@H](CCCNC(=N)N)C(=O)N1Cc2ccccc2C[C@H]1C(N)=O)[C@@H](C)O)[C@@H](C)CC
# notes: also called compound No. 17
# B5: Ac-[D-Pro24, Cha27,28, Aib31, Phe(2F)36]-PYY(23-36) (peptide)
# peptide: Ac-S[dP]RH[Cha][Cha]NL[Aib]TRQR[Phe(2-F)]-NH2
# SMILES: CC(=O)N[C@@H](CO)C(=O)N1CCC[C@@H]1C(=O)N[C@@H](CCCNC(=N)N)C(=O)N[C@@H](Cc1c[nH]cn1)C(=O)N[C@@H](CC1CCCCC1)C(=O)N[C@@H](CC1CCCCC1)C(=O)N[C@@H](CC(N)=O)C(=O)N[C@@H](CC(C)C)C(=O)NC(C)(C)C(=O)N[C@H](C(=O)N[C@@H](CCCNC(=N)N)C(=O)N[C@@H](CCC(N)=O)C(=O)N[C@@H](CCCNC(=N)N)C(=O)N[C@@H](Cc1ccccc1F)C(N)=O)[C@@H](C)O
# notes: also called compound No. 194
# B6: Ac-[D-Pro24, Cha27,28, Aib31, Phe(3F)36]-PYY(23-36) (peptide)
# peptide: Ac-S[dP]RH[Cha][Cha]NL[Aib]TRQR[Phe(3-F)]-NH2
# SMILES: CC(=O)N[C@@H](CO)C(=O)N1CCC[C@@H]1C(=O)N[C@@H](CCCNC(=N)N)C(=O)N[C@@H](Cc1c[nH]cn1)C(=O)N[C@@H](CC1CCCCC1)C(=O)N[C@@H](CC1CCCCC1)C(=O)N[C@@H](CC(N)=O)C(=O)N[C@@H](CC(C)C)C(=O)NC(C)(C)C(=O)N[C@H](C(=O)N[C@@H](CCCNC(=N)N)C(=O)N[C@@H](CCC(N)=O)C(=O)N[C@@H](CCCNC(=N)N)C(=O)N[C@@H](Cc1cccc(F)c1)C(N)=O)[C@@H](C)O
# notes: also called compound No. 195
# B7: Ac-[D-Pro24, Cha27,28, Aib31, Phe(2Me)36]-PYY(23-36) (peptide)
# peptide: Ac-S[dP]RH[Cha][Cha]NL[Aib]TRQR[Phe(2-Me)]-NH2
# SMILES: CC(=O)N[C@@H](CO)C(=O)N1CCC[C@@H]1C(=O)N[C@@H](CCCNC(=N)N)C(=O)N[C@@H](Cc1c[nH]cn1)C(=O)N[C@@H](CC1CCCCC1)C(=O)N[C@@H](CC1CCCCC1)C(=O)N[C@@H](CC(N)=O)C(=O)N[C@@H](CC(C)C)C(=O)NC(C)(C)C(=O)N[C@H](C(=O)N[C@@H](CCCNC(=N)N)C(=O)N[C@@H](CCC(N)=O)C(=O)N[C@@H](CCCNC(=N)N)C(=O)N[C@@H](Cc1ccccc1C)C(N)=O)[C@@H](C)O
# notes: also called compound No. 196
# B8: Ac-[D-Pro24, Cha27,28, Aib31, Phe(3Me)36]-PYY(23-36) (peptide)
# peptide: Ac-S[dP]RH[Cha][Cha]NL[Aib]TRQR[Phe(3-Me)]-NH2
# SMILES: CC(=O)N[C@@H](CO)C(=O)N1CCC[C@@H]1C(=O)N[C@@H](CCCNC(=N)N)C(=O)N[C@@H](Cc1c[nH]cn1)C(=O)N[C@@H](CC1CCCCC1)C(=O)N[C@@H](CC1CCCCC1)C(=O)N[C@@H](CC(N)=O)C(=O)N[C@@H](CC(C)C)C(=O)NC(C)(C)C(=O)N[C@H](C(=O)N[C@@H](CCCNC(=N)N)C(=O)N[C@@H](CCC(N)=O)C(=O)N[C@@H](CCCNC(=N)N)C(=O)N[C@@H](Cc1cccc(C)c1)C(N)=O)[C@@H](C)O
# notes: also called compound No. 197
# B9: 4-Guanidinomethylbenzoyl-[Ala26, Ile28,31]-PYY(25-36) (peptide)
# peptide: {4‑guanidinomethylbenzoyl}-RAYINLITRQRY-NH2
# SMILES: CC[C@H](C)[C@H](NC(=O)[C@H](Cc1ccc(O)cc1)NC(=O)[C@H](C)NC(=O)[C@H](CCCNC(=N)N)NC(=O)c1ccc(CNC(=N)N)cc1)C(=O)N[C@@H](CC(N)=O)C(=O)N[C@@H](CC(C)C)C(=O)N[C@H](C(=O)N[C@H](C(=O)N[C@@H](CCCNC(=N)N)C(=O)N[C@@H](CCC(N)=O)C(=O)N[C@@H](CCCNC(=N)N)C(=O)N[C@@H](Cc1ccc(O)cc1)C(N)=O)[C@@H](C)O)[C@@H](C)CC
# notes: also called compound No. 4
# B10: 4-Aminomethylbenzoyl-[Ala26,28, Ile31]-PYY(25-36) (peptide)
# peptide: [4Amb]RAYANLITRQRY-NH2
# modifications: N-terminus assumed
# SMILES: CC[C@H](C)[C@H](NC(=O)[C@H](CC(C)C)NC(=O)[C@H](CC(N)=O)NC(=O)[C@H](C)NC(=O)[C@H](Cc1ccc(O)cc1)NC(=O)[C@H](C)NC(=O)[C@H](CCCNC(=N)N)NC(=O)c1ccc(CN)cc1)C(=O)N[C@H](C(=O)N[C@@H](CCCNC(=N)N)C(=O)N[C@@H](CCC(N)=O)C(=O)N[C@@H](CCCNC(=N)N)C(=O)N[C@@H](Cc1ccc(O)cc1)C(N)=O)[C@@H](C)O
# notes: also called compound No. 31
# B11: 4-Aminomethylbenzoyl-[Ala26,30, Ile28,31]-PYY(25-36) (peptide)
# peptide: [4Amb]RAYINAITRQRY-NH2
# modifications: N-terminus assumed
# SMILES: CC[C@H](C)[C@H](NC(=O)[C@H](C)NC(=O)[C@H](CC(N)=O)NC(=O)[C@@H](NC(=O)[C@H](Cc1ccc(O)cc1)NC(=O)[C@H](C)NC(=O)[C@H](CCCNC(=N)N)NC(=O)c1ccc(CN)cc1)[C@@H](C)CC)C(=O)N[C@H](C(=O)N[C@@H](CCCNC(=N)N)C(=O)N[C@@H](CCC(N)=O)C(=O)N[C@@H](CCCNC(=N)N)C(=O)N[C@@H](Cc1ccc(O)cc1)C(N)=O)[C@@H](C)O
# notes: also called compound No. 32
# B12: 4-Aminomethylbenzoyl-[Ala26,31, Ile28]-PYY(25-36) (peptide)
# peptide: [4Amb]RAYINLATRQRY-NH2
# modifications: N-terminus assumed
# SMILES: CC[C@H](C)[C@H](NC(=O)[C@H](Cc1ccc(O)cc1)NC(=O)[C@H](C)NC(=O)[C@H](CCCNC(=N)N)NC(=O)c1ccc(CN)cc1)C(=O)N[C@@H](CC(N)=O)C(=O)N[C@@H](CC(C)C)C(=O)N[C@@H](C)C(=O)N[C@H](C(=O)N[C@@H](CCCNC(=N)N)C(=O)N[C@@H](CCC(N)=O)C(=O)N[C@@H](CCCNC(=N)N)C(=O)N[C@@H](Cc1ccc(O)cc1)C(N)=O)[C@@H](C)O
# notes: also called compound No. 33
# B13: 4-Aminomethylbenzoyl-[Ala26, Arg27, Ile28,31]-PYY(25-36) (peptide)
# peptide: [4Amb]RARINLITRQRY-NH2
# modifications: N-terminus assumed
# SMILES: CC[C@H](C)[C@H](NC(=O)[C@H](CCCNC(=N)N)NC(=O)[C@H](C)NC(=O)[C@H](CCCNC(=N)N)NC(=O)c1ccc(CN)cc1)C(=O)N[C@@H](CC(N)=O)C(=O)N[C@@H](CC(C)C)C(=O)N[C@H](C(=O)N[C@H](C(=O)N[C@@H](CCCNC(=N)N)C(=O)N[C@@H](CCC(N)=O)C(=O)N[C@@H](CCCNC(=N)N)C(=O)N[C@@H](Cc1ccc(O)cc1)C(N)=O)[C@@H](C)O)[C@@H](C)CC
# notes: also called compound No. 29
# Target: T1, human Y2 receptor (human, UniProt P49146 1-381)
# T1 construct: whole, on cells; used as membrane fraction of hY2R/CHO cells; also called human NPY2R; hY2R
# T1 sequence (looked up): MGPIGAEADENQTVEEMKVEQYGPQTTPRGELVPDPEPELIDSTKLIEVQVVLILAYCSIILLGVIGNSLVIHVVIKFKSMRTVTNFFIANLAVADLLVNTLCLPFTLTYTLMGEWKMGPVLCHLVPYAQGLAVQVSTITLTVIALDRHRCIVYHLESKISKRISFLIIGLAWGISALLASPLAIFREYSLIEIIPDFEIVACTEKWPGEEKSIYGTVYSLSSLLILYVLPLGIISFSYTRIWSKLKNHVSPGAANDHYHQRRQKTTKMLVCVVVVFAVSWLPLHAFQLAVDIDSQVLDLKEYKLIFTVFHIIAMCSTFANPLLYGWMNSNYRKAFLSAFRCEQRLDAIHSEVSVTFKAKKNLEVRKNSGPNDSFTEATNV
# Assay: RBA: [125I]-PYY displacement, hY2R/CHO membranes
# Method in brief: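 Bound radioligand was collected by filtration on PEI-treated GF/C filters, washed with Tris/MgCl₂/NaCl/CHAPS buffer pH 7.4, and counted by scintillation; IC₅₀ values were calculated.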
row,Binder,IC50 Ratio (vs PYY(3-36)) [ratio]
1,B1,120
2,B2,8.1
3,B3,1.5
4,B4,180
5,B5,1.4
6,B6,2.1
7,B7,1.6
8,B8,1.3
9,B9,2.4
10,B10,42
11,B11,9.1
12,B12,23
13,B13,6.8

# Target: T1, human Y2 receptor
# Assay: cell-based or functional assay
row,Binder,"GBA EC50 Ratio (vs PYY(3-36)), [35S]GTPγS [ratio]"
1,B1,45
2,B2,6
3,B3,2.9
4,B4,66
5,B5,1.3
6,B6,1.5
7,B7,1.6
8,B8,1.9
9,B9,1.1
10,B10,29
11,B11,7.4
12,B12,17
13,B13,4.3

# Reference: patent US20120172293A1 (Takeda / Millennium, published 2012)
